In a protein production outcome set (Wang et al. 2014) one finds protein production data, which are given here for 22 sequences.

This data set is described as follows: label from the status in PepcDB records.
For “MGKKKNKKTEVQQPDPMRKNWIMENMDSGVIYLLESWLKAKSQETGKEISDIFANAVEFNIVLKDWGKEKLEETNTEYQNQQRKLRKTYIEYYDREMK”, the protein production entry is reported as “not failed”.
With “MSVLDISIIIANYNTEEFLRNCLNSIKSTVKNVKYEVIVTDNNSKDDSVTMIKNEFPWVKLIESKINGGFAYANNLAIKESSGKYIFLLNTDTVLLKDVIEKMVNYMDENKDVGLLGPKLLNRDMSHQTSVSGFPSFKREFYHIYKLKNILKIPILKKIIVAMSGKIGSKDVEQYMMNFKSIDEPREVQVLVGAALLVRRNVIDKIGMLDERYFMYYEEIDFCYQANKAGFKAVYYPNGEIIHYIGQAATKSRILEHHHHHH”, the protein production entry is “not failed”.
Turning to “NRLLSKYDPQKEAELRTWIEGLTGLSIGPDFQKGLKDGTILCTLMNKLQPGSVPKINRSMQNWHQLENLSNFIKAMVSYGMNPVDLFEANDLFESGNMTQVQVSLLALAGKAKTKGLQSGVDIGVKYSEKQER”, the protein production result is recorded as “not failed”.
The result for “MKESNHLMDTPYSYLIRSIGMKLKTSADARLAELGLNSQQGRMIGYIYENQESGIIQKDLAQFFGRRGASITSMLQGLEKKGYIERRIPENNARQKNIYVLPKGAALVEEFNNIFLEVEESITKGLTKDEQKQLMSILIKVNRSM” reads “not failed”; that for “PELPTCLTRRLADYATEKPLVRLFFQGEEATVPFISQTSRELNMDINILLANIDRFDGVTCGVLVVELTANPLLLEAFINRCEQAGITVEVLGYVLPDGL”, “not failed”.
To “MDNLETDRLILINYTLEMIQATINGTEALEKTSGYHVSPDWPGIDFFFYLPYVLENVKKDDKMIKWTRLVVLKTENKIIGEIGGQGNPDETGEIEIGYSIVPDYQNKGYMSEALISMIDWLEHQPVINRIFARCYEQNEASIQVLKHNHFVH” belongs “failed”; to “MDKTDSIDIDKQVNTDELFGHPKGLYICFATELWERFSFYGMKYLLLLYLTKYHLFSDGEGLEVLGSYAGLVYTLPVIGGMLADRYLGMKKSVIFGGILLCLGHLLMAVEGHQAVQYAAGTILTSDLTLNNGAVLSAGTLLTETIKIQDLAALNVFYFALSLIVVGVGFLKPNISTIVGQLYSKDDPRRDSGFTIFYMGINLGSFAATIICVYLGETYGWRYGFGAAGIGMLFGLVTFTKGLKYLRGLAEPPDVAVLSEKVWGLISREYLIYLTAILSLSVFWLVIQHEPVVFAAQQVLLVVSGVGLIGYAALKGSREEFQQMLVLMVLIGSTIVFWALFEQAAGSMTLFADRVVERNIAGIEITAGQFGALNAGFIIMLALPFAALWVWLEKFRLNPNIPIKFALGIIQAGLGFGVLVFGAQFPDEAGKISLWWLVLAYLIHTTGELCLSPVGLSAVTKLAIHRVVGLSMGVWFLATALSETLAMRLGKLAAIDTQGGELNSVSDNLIIYTQLFEFLMWIGIGTGVVVLLISPLLKRGMHGVR”, “failed”.
To “MNMIDQLNITDFQVFTDENSDKSVSKIYKFSSKMILSDFHAQPHGFLNGGASLALAEITAGMASNAIGSSQYFALGQSISANHLNSKKCEGFVNACGLLLKNGKRNHVWEIKITDENETLISQITVVNALVPQKNSDKLEHHHHHH” belongs “failed”; to “NDQDAIQEKFYPPRFIQVPENMSIDEGRFCRMDFKVSGLPAPDVSWYLNGRTVQSDDLHKMIVSEKGLHSLIFEVVRASDAGAYACVAKNRAGEATFTVQLDVLAKEHKRAPMFIYKPQSKKVLEGDSVKLECQISAIPPPKLFWKRNNEMVQFNTDRISLYQDNTGRVTLLIKDVNKKDAGWYTVSAVNEAGVTTCNTRLDVTARPNQTLPAPKQLRVRPTFSKYLALNGKGLNVKQAFNPEGEFQRLAAQSGLYESEEL”, “failed”; to “MESYSPAQTCLELVPVLADDSISAASTSDVQDRLSALESRVQQQEDEITVLKAALADVLRRLAISEDHVASVKKSMPSKGQPSLREAISMSCITNGSGINRKQNHTSSISIARKETLSSAAKSGTEKKKEKPQGQREKKEESHSNDQSPQIRASPSPQPSSQPLQINRQTPESKSSAPTKSIKRPPTAEKSHNSWENSDDSRNKLLKTVSTSKLISKVIKNTDKHKDVIINQAKMSTREKSSQEGEYIKMFMRGRPITMFIPSDVDNYDDIRTELPPEKLKLEWVYGYRGKDCRANVYLLPTGEIVYFIASVVVLFNYEERTQRHYLGHTDCVKCLAVHPDKIRMATGQIAGVDKDGRPLQPHVRVWDSVSLSTLHVIGLGTFERGVGCLDFSKADSGVHLCVIDDSNEHMLTVWDWQRKSKVAEIKTTNEVVLAVEFHPTDANTIITCGKSHIFFWTWSGNSLTRKQGIFGKYEKPKFVQCLAFLGNGDVLTGDSGGVMLIWSKTTIEPPPGKGPKGVYQISRQIKAHDGSVFTLCQMRNGMLLTGGGKDRKIILWDHDLNLEREIEVPDQYGTIRAVAEGKAEQFLVGTSRNFILRGTFNDGFQIEVQGHTDELWGLATHPFKDLLLTCAQDRQVCMWNSVEHRLEWTRLVDEPGHCADFHPSGTVVAIGTHSGRWFVLDAETRDLVSIHTDGNEQLSVMRYSVDGTLLAVGSHDNFIYLYAVSENGRKYSRYGKCTGHSSYITHLDWSPDNKHIMSNSGDYEILYWDIENGCKLIRNRSDCKDIDWTTYTCVLGFQVFGVWPEGSDGTDINALVRSHHRRVIAVADDFCKVHLFQYPCSKPKAPSHKYSAHSSHVTNVSFTHNDSHLISTGGKDMSIIQWKLVEKLPLPQNEVIADTSSTKAPASATENARLCNAPQPPSQPLPGTAEEESRVSSSPTLVENSLEQSEWGSEDLGVVIDEEPASERGEKQGAAEASEEEQGAAPLC”, “failed”.
As for “MRSAAVLALLLCAGQVTALPVNSPMNKGDTEVMKCIVEVISDTLSKPSPMPVSQECFETLRGDERILSILRHQNLLKELQDLALQGAKERAHQQKKHSGFEDELSEVLENQSSQAELKEAVEEPSSKDVMEKREDSKEAEKSGEATDGARPQALPEPMQESKAEGNNQAPGEEEEEEEEATNTHPPASLPSQKYPGPQAEGDSEGLSQGLVDREKGLSAEPGWQAKREEEEEEEEEAEAGEEAVPEEEGPTVVLNPHPSLGYKEIRKGESRSEALAVDGAGKPGAEEAQDPEGKGEQEHSQQKEEEEEMAVVPQGLFRGGKSGELEQEEERLSKEWEDSKRWSKMDQLAKELTAEKRLEGQEEEEDNRDSSMKLSFRARAYGFRGPGPQLRRGWRPSSREDSLEAGLPLQVRGYPEEKKEEEGSANRRPEDQELESLSAIEAELEKVAHQLQALRRG”, the protein production entry was “failed”.
Take “MKLDEIARLAGVSRTTASYVINGKAKQYRVSDKTVEKVMAVVREHNYHPNAVAAGLRAGRTRSIGLVIPDLENTSYTRIANYLERQARQRGYQLLIACSEDQPDNEMRCIEHLLQRQVDAIIVSTSLPPEHPFYQRWANDPFPIVALDRALDREHFTSVVGADQDDAEMLAEELRKFPAETVLYLGALPELSVSFLREQGFRTAWKDDPREVHFLYANSYEREAAAQLFEKWLETHPMPQALFTTSFALLQGVMDVTLRRDGKLPSDLAIATFG”: the protein production result was “failed”.
To “MVYKPLEASDRTELRALQSDRLQRIVTHAHENVPFYREKLDAAGVSPEDIQSIDDITKLPMTTKEDFRDEYPDGLFAVDDEEVARIHASSGTTGKPKIVSYTDDDLDTWSEVVARSLAASGTEAGDTVQNAYGYGLFTGGLGIHYGTEELGASVVPIGSGQTQRQVELMTDLESDVFTCTPSYALYLAETAEEMGHDPRDLPISTIIFGAEPCTDPMREEIEERLGVDGIDIYGLSEIIGPGVSCECHEAKDGLHIWEDHFYPEVIDPHTKEPVEEGEEGELVLTTLTKEALPVFRYRTGDLTTLNYDECACGRTMVRMDNVTGRTDDLLIVRGVNLYPSEIEHAVLDIDGVAPHYRIDLYKEDNLDILELTIERTAEQGPGDKALEDEIIERLENVLAFTPDELELVAPGSIERTQVGKVKRVYDHRD” belongs “not failed”.
To “MQRANREHLEIISLEEISMLVSSDFDLPEVLQHVTAKVATQLKVSVCNIYLREGDEVVLAATHGFDPAFIGKIRIKIGDGITGSVARDGQYISLSRASQDPRYRYFPELQEEKYNSMLSFPIGDKKEVYGVINLNTTSIRSFHEDEIYFVSIIANLILTAIKLRQQVASSRKAAEASA” belongs “not failed”; to “MLQMNLEELRRIQEEMSRSVVLEDLIPLEELEYVVGVDQAFISDEVVSCAVKLTFPELEVVDKAVRVEKVTFPYIPTFLMFREGEPAVNAVKGLVDDRAAIMVDGSGIAHPRRCGLATYIALKLRKPTVGITKKRLFGEMVEVEDGLWRLLDGSETIGYALKSCRRCKPIFISPGSYISPDSALELTRKCLKGYKLPEPIRIADKLTKEVKRELTPTSKLKLEHHHHHH”, “failed”; to “MNNTQQFSLSMRLFHWAMAALVISMLAAGLLMVRSLEPWQLSILTVHKAFGVVAAALVIARLMNRLFHQIPALPGDLSSLQTFVAKASHWLLYLLLFAMPISGYLMQYFAGRPIDVFGWFRLPSALTVNIENYAIFRELHGWLAIALMALVALHVAAALHHHFIRKDTVLKSML”, “failed”.
On to “MISIVIPLYNQVAYTQLCVQSLRRAGLNGVDVLLIDNGSTDGTAEYLKSCSDLRVIRNRENLGCAGAWNQGVRETTSEWVMILNNDVVVSPGWLDGLLEAAGKEGLDVVSPAIREGEYNYDIEGYSQEFVGRMGDVVRRGVADGICFMVRRRVFEVVGLFDENFRIGQFEDADFFRRARNAGFRLGTTGRSFIHHFGSVTQDAIRKNRPERPYVAENRAYFREKWQLTRGRRLIERWRRKLREFAWQKCERMFHGHTLKEKWLGGRLRYYLEHHHHHH”, for which the protein production entry is given as “failed”.
The result for “MLVLYRASIRFKLRKNKNSFDSSNYFYGGNNICIINTKWGKHSGIGGYAEIIDTLVGNFTNISSWAKIGIRDHIHTNFLICDFVYKDNDHIMPPGISSFEDYWVKIGNDVWVGTNVTILRGVEVGDGAVIAAGSVVTKSIPPYAIVGGNPAKFIKWRFPFEVREKLLEIKWWDWDDDLIKEKKDYLQNLVGFDMDKYKIEYRKRKEDLFYLEHHHHHH” reads “not failed”; that for “MKPLHLKLNNFGPFLKEEIDFSKIDNNELFLISGKTGSGKTMIFDAMTYALFGKASTEQREENDLRSHFADGKQPMSVTFEFQLNHRIYKVHRQGPYIKEGNTTKTNAKFDVFEMVDGKYEIRESKVISGTQFIIELLGVNADQFRQLFILPQGEFKRFLISNSREKQGILRTLFDSEKFEAIREILKEELKKEKAQIENRYQQIDLLWQEIESFDDDKIKGLLELAT”, “failed”.
Take “MKFSRFRDSKLFFWTIEILAVVAILFVLLQMKYIFSPIGIIVSTLFMPILVAGFLFYLFNPLVLFLEKRKVPRLLSVIVIFIAFITLVVLAVMQLGPTLADQVAELAKAIPGYWQDFEKWLQGLSNNSALKDIDMKQELEKLNISLPKIMSVVVDGVASSFGAIVSFVSSFVMILVTVPFIVFYMFKDGHKFVESSGKFFPAGIRSEAKQIIKEMNKTISTYISSQAIDCMFVGLFTFIGYLIIGQPYALLFGFIAGATNIIPYLGPFIGAAPAVIVALFTSPVQALLVIVVVTIVQQIDSNLLSPYIMGKSLSIHPLTIIIILIVAGNLAGIFGMILGVPLYAVVKTIIVNVNRLIKLRRGQLAIDNNLPNPDTPKK”: the protein production entry was “not failed”.
The result for “MNLRGILPFAHDTLRKVVRSGDYVVDATCGNGHDTLLLAELVGINGHVLGFDIQQLAIDATNTRLENAGVSSQVELVCASHARIPEYTSKPVRAAIFNLGYLPGGDKEITTTADSTLESIGHLMELLEVGGVIILVIYHGHPAGKQEKDAVMTFCEAIPQQDFHVLSYNFINQKNDAPFVIIIEKRKPRQSLEHHHHHH” reads “not failed”; that for “MRIECYSWSDVSEQILEQAIALQNSAFEDMKGNFYQVDIPYKLVLAIDDNQVIGHVAVYLRDVYLDSFPETIGILSCVVVAHKYRGKGVAASLIKMAHAILKEHSVNFSILFAVSHAYYLSSGYIPMKNLTRFIENNEKKEFIYDGGMVCELGSQNWNVNILELNGEVV”, “failed”.
